Source: patent publication EP4803098A1 (Shandong Boan Biotechnology Co., Ltd., dated 2025)
Substitutions are numbered along the chain they refer to. Like-named read-outs stand apart in the source and are kept apart here. Each block holds one binder with its values, some of them ahead of it.

Experiments:
[1] = target: T1, GIPR on CHOK1-GIPR/GLP-1R cells (human, UniProt P48546 22-466); assay: cell-based or functional assay
T1 sequence (looked up): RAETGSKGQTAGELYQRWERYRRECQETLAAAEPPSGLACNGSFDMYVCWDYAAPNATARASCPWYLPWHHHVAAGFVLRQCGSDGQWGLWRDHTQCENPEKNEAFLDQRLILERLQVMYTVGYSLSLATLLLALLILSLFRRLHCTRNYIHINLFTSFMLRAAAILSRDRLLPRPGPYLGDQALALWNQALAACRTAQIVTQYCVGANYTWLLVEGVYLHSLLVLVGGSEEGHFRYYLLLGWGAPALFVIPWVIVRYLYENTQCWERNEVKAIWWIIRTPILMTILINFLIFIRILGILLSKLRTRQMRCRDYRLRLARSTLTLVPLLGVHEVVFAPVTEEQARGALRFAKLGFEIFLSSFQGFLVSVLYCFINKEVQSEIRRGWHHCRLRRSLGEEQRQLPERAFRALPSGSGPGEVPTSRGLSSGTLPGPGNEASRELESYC

[2] = target: T2, hGIPR-His protein (human, UniProt P48546 22-138); assay: BLI (Octet), antibody captured on FAB2G sensor, hGIPR-His in solution, 1:1 model
T2 chain: T1 sequence (looked up)

[3] = target: T2, hGIPR-His protein; assay: BLI (Octet), antibody captured on FAB2G sensor, hGIPR-His in solution
[4] = target: T3, mGIPR-Fc protein (mouse, UniProt Q0P543 19-134, limits assumed); assay: ELISA, mGIPR-Fc coated
T3 construct: also called mouse GIPR-Fc protein; not shown: Fc part
T3 sequence (looked up): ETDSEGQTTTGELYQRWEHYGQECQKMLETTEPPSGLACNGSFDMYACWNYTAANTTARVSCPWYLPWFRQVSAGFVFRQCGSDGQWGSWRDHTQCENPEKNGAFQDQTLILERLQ

[5] = target: T1, GIPR on CHOK1-GIPR/GLP-1R cells; assay: flow cytometry on CHOK1-GIPR/GLP-1R cells
[6] = target: T1, GIPR on CHOK1-GIPR/GLP-1R cells; assay: flow cytometry on CHOK1-GIPR/GLP-1R cells (run with CE560)
[7] = target: T1, GIPR on CHOK1-GIPR/GLP-1R cells; assay: cell-based or functional assay; remark: listed apart in the source
[8] = target: T1, GIPR on CHOK1-GIPR/GLP-1R cells; assay: flow cytometry on CHOK1-GIPR/GLP-1R cells (run with CA360)
[9] = target: T1, GIPR on CHOK1-GIPR/GLP-1R cells; assay: flow cytometry on CHOK1-GIPR/GLP-1R cells (run with CE947)
[10] = target: T1, GIPR on CHOK1-GIPR/GLP-1R cells; assay: flow cytometry on CHOK1-GIPR/GLP-1R cells (run with BA191)

IC50 (µg/mL), cAMP content [1]: 0.14 µg/mL
Kd [2]: 2.63 nM
Response [3]: 0.222
EC50 [5]: 0.206 µg/mL
Maximum binding value (RFU) [5]: 492000 RFU
B1: CE560 (antibody, human IgG1, kappa, L234A L235A, V domains shown)
VH: EVQLVQSGAEVKKPGSSVKVSCKASGGTFNNYAISWVRQAPGQGLEWMGRIIPFLDIASYAQKFQGKVTITADKSTSTAYMELSSLRSEDTAVYYCAREVDWGWFDSWGQGTLVTVSS
VL: IQMTQSPSSLSASVGDRVTITCRASQGISSYLAWYQQKPGKAPKLLIYAASTLQSGVPSRFSGSGSGTDFTLTISSLQPEDFATYYCQQLNSYPLTFGGGTKVEIKR
notes: also called GIPR antibody CE560
binding result [4]: no binding (tested: starting from 0.2 µg/mL)

IC50 (µg/mL), cAMP content [1]: 0.21 µg/mL
EC50 [6]: 0.263 µg/mL
Kd [2]: 12.6 nM
IC50 (µg/mL), cAMP content [7]: 0.3 µg/mL
EC50 [8]: 0.213 µg/mL
Response [3]: 0.142
EC50 [9]: 0.213 µg/mL
EC50 [10]: 0.151 µg/mL
B2: 2G10 (antibody, V domains shown)
VH: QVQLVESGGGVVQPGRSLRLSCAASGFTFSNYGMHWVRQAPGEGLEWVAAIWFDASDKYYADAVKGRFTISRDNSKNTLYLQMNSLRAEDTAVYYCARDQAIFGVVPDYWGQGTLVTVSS
VL: EIVMTQSPATLSVSPGERATLSCRASQSVSSNLAWYQQKPGQAPRLLIYGAATRATGIPARVSGSGSGTEFTLTISSLQSEDFAVYYCQQYNNWPLTFGGGTKVEIKR
notes: also called control group 2G10

IC50 (µg/mL), cAMP content [1]: 0.2 µg/mL
Kd [2]: 3.07 nM
Response [3]: 0.246
EC50 [5]: 0.328 µg/mL
Maximum binding value (RFU) [5]: 281000 RFU
B3: CA360 (antibody, human IgG1, kappa, L234A L235A, V domains shown)
VH: EVQLVQSGAEVKKPGSSVKVSCKASGGTFSGYPINWVRQAPGQGLEWMGRIIPIPGIPNYAQKFQDRVTITADKFANTAYMELSSLRSEDTAVYYCARDPLGPYVFDIWGQGTMVTVSS
VL: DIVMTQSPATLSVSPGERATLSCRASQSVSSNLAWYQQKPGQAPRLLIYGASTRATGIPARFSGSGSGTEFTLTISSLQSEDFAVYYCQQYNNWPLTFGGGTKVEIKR
notes: also called GIPR antibody CA360

Kd [2]: 4.28 nM
IC50 (µg/mL), cAMP content [7]: 0.04 µg/mL
Response [3]: 0.246
EC50 [5]: 0.091 µg/mL
Maximum binding value (RFU) [5]: 17600 RFU
B4: BA191 (antibody, human IgG1, kappa, L234A L235A, V domains shown)
VH: EVQLVQSGAEVKKPGSSVKVSCKASGGTFSTFSSYAISWVRQAPGQGLEWMGRIIPILGIGNNAQKFQGRVTITADKSTSTAYMELSSLRSEDTAVYYCAREKDWGHFDYWGQGTLVTVSS
VL: DIQMTQSPSSLSASVGDRVTITCRASQGISNYLAWFQQKPGKAPKSLIYAASSLQSGVPSKFSGSGSGTDFTLTISSLQPEDFATYYCQQYNSYPITFGQGTRLEIKR
notes: also called GIPR antibody BA191
binding result [4]: no binding (tested: starting from 0.2 µg/mL)

Kd [2]: 1.13 nM
IC50 (µg/mL), cAMP content [7]: 0.05 µg/mL
Response [3]: 0.19
EC50 [5]: 0.131 µg/mL
Maximum binding value (RFU) [5]: 311000 RFU
B5: CE947 (antibody, human IgG1, kappa, L234A L235A, V domains shown)
VH: B1 VH with Y60N
VL: B4 VL with K61R, S77N, Q89L, N92Y, S93D, I96L, Q100G, R103K
notes: also called GIPR antibody CE947
binding result [4]: no binding (tested: starting from 0.2 µg/mL)
